In patent US20100255020A1, “METHOD FOR INDUCING CYTOTOXIC T-CELLS, CYTOTOXIC T-CELL INDUCERS, AND PHARMACEUTICAL COMPOSITIONS AND VACCINES EMPLOYING THEM” (NEC CORPORATION, priority 2007, published 2010):

What was measured:
[1] = target: HLA-A*0206 molecule (human); test: flow cytometry, RA2.6 (RMAS-HLA-A*0206) stabilisation assay with peptide dilutions, stained with mAb BB7.2
[2] = target: HLA-A*0201 molecule (human); test: flow cytometry, acid-stripped JY cells reconstituted with beta2m and peptide dilutions, stained with mAb BB7.2
[3] = target: HLA-A*2402 molecule (human); test: flow cytometry, acid-stripped C1R-A24 cells reconstituted with beta2m and peptide dilutions, stained with mAb 17A12

-log Kd [1]	-log Kd [2]	-log Kd [3]	Binder
6.61 -log Kd	6.41 -log Kd	7.67 -log Kd	RVPGVAPTL (modifications not checked) [W302 peptide]
7.74 -log Kd	7.84 -log Kd	9.16 -log Kd	ALLPAVPSL (modifications not checked) [W10 peptide]
